Results published in patent publication US20230012273A1 (Boehringer Ingelheim, published 2023).
Substitutions are numbered along the chain they refer to.

T1: cynoSIRPα (NP_001271679), Extracellular Domain + His-Tag (cynomolgus monkey)
T1 construct: also called CySIRPα NP_001271679; not shown: His-Tag
T1 chain: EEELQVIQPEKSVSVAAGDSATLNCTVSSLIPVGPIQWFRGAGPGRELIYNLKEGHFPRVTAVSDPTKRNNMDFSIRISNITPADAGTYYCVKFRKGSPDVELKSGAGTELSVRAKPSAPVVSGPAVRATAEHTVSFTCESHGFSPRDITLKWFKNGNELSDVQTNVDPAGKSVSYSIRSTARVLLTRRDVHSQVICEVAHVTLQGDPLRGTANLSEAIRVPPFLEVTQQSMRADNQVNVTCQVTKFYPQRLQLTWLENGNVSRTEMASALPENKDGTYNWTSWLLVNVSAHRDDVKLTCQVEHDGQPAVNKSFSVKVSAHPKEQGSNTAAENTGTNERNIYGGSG

T2: cynoSIRPα (EGM_02252), Extracellular Domain + His-Tag (cynomolgus monkey)
T2 construct: also called CySIRPα EGM_02252; not shown: His-Tag
T2 chain: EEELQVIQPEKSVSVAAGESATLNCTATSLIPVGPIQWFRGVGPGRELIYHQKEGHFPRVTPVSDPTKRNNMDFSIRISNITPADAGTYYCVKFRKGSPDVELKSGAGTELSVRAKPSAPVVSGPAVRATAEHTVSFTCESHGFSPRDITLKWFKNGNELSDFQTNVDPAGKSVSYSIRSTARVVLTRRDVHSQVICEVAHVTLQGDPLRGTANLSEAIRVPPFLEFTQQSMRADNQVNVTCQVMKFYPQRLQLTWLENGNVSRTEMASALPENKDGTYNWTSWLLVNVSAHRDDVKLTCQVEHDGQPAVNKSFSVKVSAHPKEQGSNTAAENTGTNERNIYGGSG

T3: cynoSIRPα (XP_015313155), Extracellular Domain + His-Tag (cynomolgus monkey)
T3 construct: also called CySIRPα XP_015313155; not shown: His-Tag
T3 chain: T1 chain with A62P, V163F, L185V

B1: Antibody A1 (antibody, human IgG1, kappa, L234A L235A, V domains shown)
VH: EVQLVESGGGLVQPGGSLRLSCAASGFTLSSYDMHWVRQAPGKGLEWVSAIGTAGDTYYTGSVKGRFTISRENAKNSLYLQMNSLRADDTAVYYCVRGGVWDDAFDIWGQGTMVTVSS
VL: DIQMTQSPSSLSASVGDRVTITCRASQGINNYAAWFQQKPGKAPKSLIYTASSLHSGVPSKFSGSGSGTDFTLTISSLQPEDFATYYCQQYVSYPYTFGQGTKLEIKR
B2: Antibody A8 (antibody, human IgG1, kappa, L234A L235A, V domains shown)
VH: B1 VH with D88G
VL: B1 VL
B3: Antibody A6 (antibody, human IgG1, kappa, L234A L235A, V domains shown)
VH: B1 VH with D88E
VL: B1 VL
B4: Antibody A14 (antibody, human IgG1, kappa, L234A L235A, V domains shown)
VH: B1 VH with D88S
VL: B1 VL with G28D, A33L
B5: Antibody A9 (antibody, human IgG1, kappa, L234A L235A, V domains shown)
VH: B1 VH
VL: B1 VL with G28D, A33L
B6: Antibody A7 (antibody, human IgG1, kappa, L234A L235A, V domains shown)
VH: B1 VH with P41T, D88G
VL: B1 VL
B7: Antibody A3 (antibody, human IgG1, kappa, L234A L235A, V domains shown)
VH: B1 VH with P41T, D88S
VL: B1 VL
B8: Antibody A16 (antibody, human IgG1, kappa, L234A L235A, V domains shown)
VH: B1 VH with D88G
VL: B1 VL with G28D, A33L
B9: Antibody A12 (antibody, human IgG1, kappa, L234A L235A, V domains shown)
VH: B1 VH with P41T, D88S
VL: B1 VL with G28D, A33L
B10: Antibody A15 (antibody, human IgG1, kappa, L234A L235A, V domains shown)
VH: B1 VH with D88E
VL: B1 VL with G28D, A33L
B11: Antibody A13 (antibody, human IgG1, kappa, L234A L235A, V domains shown)
VH: B1 VH with D88A
VL: B1 VL with G28D, A33L
B12: Antibody A5 (antibody, human IgG1, kappa, L234A L235A, V domains shown)
VH: B1 VH with D88S
VL: B1 VL
B13: Antibody A2 (antibody, human IgG1, kappa, L234A L235A, V domains shown)
VH: B1 VH with P41T, D88A
VL: B1 VL

Molecular target: T4, Human SIRPαV1 (NP_542970.1), Extracellular Domain + His-Tag (human, UniProt P78324 31-373)
T4 construct: also called huSIRPαV1; hSIRPαV1; not shown: His-Tag
T4 sequence (P78324 other isoform, or with tags, fused parts or gaps): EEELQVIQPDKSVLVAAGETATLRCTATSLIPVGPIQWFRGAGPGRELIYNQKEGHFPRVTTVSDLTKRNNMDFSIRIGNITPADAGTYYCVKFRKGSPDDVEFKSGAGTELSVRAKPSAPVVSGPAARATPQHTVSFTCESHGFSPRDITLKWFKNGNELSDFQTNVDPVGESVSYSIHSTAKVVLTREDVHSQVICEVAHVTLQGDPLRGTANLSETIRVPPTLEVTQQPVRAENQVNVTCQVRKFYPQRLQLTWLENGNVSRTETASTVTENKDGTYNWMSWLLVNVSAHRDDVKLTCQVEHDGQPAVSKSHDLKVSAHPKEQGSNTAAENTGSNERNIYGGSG
Test: SPR, antibody captured on Protein A/G, ECD-His analyte, 1:1 fit
How it was run: (§1)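 Analyte was His-tagged SIRPα extracellular domain in dilution series, associating 300 s and dissociating 600 s at 30 μl/min. Ligand was antibody captured (~240 RU) on immobilized Protein A/G (~3000 RU). Running buffer HBS-EP+.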

Kd	koff	kon	Binder
8.6 nM	0.00625 s⁻¹	727000 M⁻¹ s⁻¹	B1
8.53 nM	0.00604 s⁻¹	708000 M⁻¹ s⁻¹	B2
8.28 nM	0.00634 s⁻¹	766000 M⁻¹ s⁻¹	B3
8.13 nM	0.00397 s⁻¹	488000 M⁻¹ s⁻¹	B4
7.34 nM	0.00363 s⁻¹	495000 M⁻¹ s⁻¹	B5
9.38 nM	0.00672 s⁻¹	716000 M⁻¹ s⁻¹	B6
9.06 nM	0.00661 s⁻¹	730000 M⁻¹ s⁻¹	B7
7.98 nM	0.00377 s⁻¹	472000 M⁻¹ s⁻¹	B8
7.83 nM	0.00378 s⁻¹	482000 M⁻¹ s⁻¹	B9
7.06 nM	0.00371 s⁻¹	526000 M⁻¹ s⁻¹	B10
7.28 nM	0.00352 s⁻¹	484000 M⁻¹ s⁻¹	B11
8.75 nM	0.00598 s⁻¹	684000 M⁻¹ s⁻¹	B12
9.39 nM	0.00685 s⁻¹	729000 M⁻¹ s⁻¹	B13

Molecular target: T5, Human SIRPαV2 (CAA71403.1), Extracellular Domain + His-Tag (human, UniProt P78324 31-373)
T5 construct: also called huSIRPαV2; hSIRPαV2; not shown: His-Tag
T5 sequence (P78324 other isoform, or with tags, fused parts or gaps): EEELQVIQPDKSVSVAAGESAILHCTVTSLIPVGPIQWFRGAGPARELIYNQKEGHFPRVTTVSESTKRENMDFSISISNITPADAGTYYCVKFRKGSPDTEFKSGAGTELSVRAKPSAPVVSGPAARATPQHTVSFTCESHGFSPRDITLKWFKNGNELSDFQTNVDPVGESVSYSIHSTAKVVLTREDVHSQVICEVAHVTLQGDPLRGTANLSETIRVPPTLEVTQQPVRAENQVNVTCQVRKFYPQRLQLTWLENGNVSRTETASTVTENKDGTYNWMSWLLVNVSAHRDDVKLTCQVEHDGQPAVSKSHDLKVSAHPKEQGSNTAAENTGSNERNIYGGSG
Test: as above
How it was run: as §1

Kd	koff	kon	Binder
18.6 nM	0.0162 s⁻¹	869000 M⁻¹ s⁻¹	B1
18.8 nM	0.0162 s⁻¹	859000 M⁻¹ s⁻¹	B2
18.1 nM	0.0171 s⁻¹	947000 M⁻¹ s⁻¹	B3
7.95 nM	0.00648 s⁻¹	816000 M⁻¹ s⁻¹	B4
8.25 nM	0.00652 s⁻¹	791000 M⁻¹ s⁻¹	B5
20.4 nM	0.019 s⁻¹	933000 M⁻¹ s⁻¹	B6
19.6 nM	0.0178 s⁻¹	907000 M⁻¹ s⁻¹	B7
8.22 nM	0.0063 s⁻¹	766000 M⁻¹ s⁻¹	B8
8.96 nM	0.00689 s⁻¹	769000 M⁻¹ s⁻¹	B9
7.91 nM	0.00671 s⁻¹	848000 M⁻¹ s⁻¹	B10
8.36 nM	0.00635 s⁻¹	760000 M⁻¹ s⁻¹	B11
17.8 nM	0.0162 s⁻¹	909000 M⁻¹ s⁻¹	B12
20.9 nM	0.0184 s⁻¹	883000 M⁻¹ s⁻¹	B13

Molecular target: T1, cynoSIRPα (NP_001271679), Extracellular …
Test: SPR, antibody captured on Protein A/G, ECD-His analyte, steady-state fit
Description: (§2) The binding kinetics of anti-SIRPα antibodies to various SIRPα analytes are determined by surface plasmon resonance (SPR) using a Biacore 8K+(Cytiva). 1×HBS-EP+(Cytiva) is used as running buffer and for all the dilutions unless stated otherwise. The Series S CM5 sensorchip is activated with a 1:1 mixture of 0.1 M NHS (N-hydroxysuccinimide) and 0.4 M EDC (1-Ethyl-3-(3-dimethylaminopropyl) carbodiimide hydrochloride) for 420 seconds at a flow rate of 10 μl/min and immobilized with Protein A/G (Thermo Scientific, 10 μg/ml in 10 mM acetate pH 4.5) for 420 seconds at a flowrate of 10 μl/min resulting in approximately 3000 RU of Protein A/G on the surface. The sensorchip is then deactivated with 1 M ethanolamine HCl pH 8.5 for 420 seconds at a flowrate of 10 μl/min.
(§3) Antibodies (approximately 1 ug/ml) are captured on the Protein A/G surface for 60 seconds at a flowrate of 10 μl/min resulting in capture levels of approximately 240 RU. Dilutions of each SIRP protein (Extracellular Domain+His-Tag, with the concentrations as indicated) are injected as analytes over the captured antibody for 300 seconds of association at a flowrate of 30 μl/min, followed by a dissociation for 600 seconds.
(§4) The above procedures are used to measure binding properties of antibodies of the present disclosure. For each analyte used, the highest concentration was as indicated in Example 3 (see Table 36).

Kd	Binder
780 nM	B1
639 nM	B2
684 nM	B3
316 nM	B4
346 nM	B5
741 nM	B6
857 nM	B7
306 nM	B8
384 nM	B9
317 nM	B10
330 nM	B11
665 nM	B12
887 nM	B13

Molecular target: T2, cynoSIRPα (EGM_02252), Extracellular …
Test: as above
Description: as §2, §3, §4

Kd	Binder
523 nM	B1
520 nM	B2
521 nM	B3
222 nM	B4
230 nM	B5
588 nM	B6
560 nM	B7
224 nM	B8
247 nM	B9
224 nM	B10
223 nM	B11
517 nM	B12
556 nM	B13

Molecular target: T3, cynoSIRPα (XP_015313155), Extracellular …
Test: as above
Description: as §2, §3, §4

Kd	Binder
427 nM	B1
415 nM	B2
420 nM	B3
176 nM	B4
174 nM	B5
466 nM	B6
480 nM	B7
174 nM	B8
195 nM	B9
174 nM	B10
177 nM	B11
415 nM	B12
469 nM	B13
